Measured values as given in article PMC7749050 (ACS synthetic biology, 2020).

B1: LDB-3-p65, mammalian two-hybrid prey (VHH)
VHH: EVQLQASGGGFVQPGGSLRLSCAASGFTWDHYIMGWFRQAPGKEREFVSAISENGDAWNYYADSVKGRFTISRDNSKNTVYLQMNSLRAEDTATYYCAIGFDVPSGRSWQGSHFWMYWGQGTQVTVSS
B2: LDB-14-p65, mammalian two-hybrid prey (VHH)
VHH: EVQLQASGGGFVQPGGSLRLSCAASGTTSRWESMGWFRQAPGKEREFVSAISWQNNSVPYYADSVKGRFTISRDNSKNTVYLQMNSLRAEDTATYYCAAQHNFLGHRYWGQGTQVTVSS

How the values were obtained:
Test in all cases: two-hybrid
[1] = target: Rhodopseudomonas palustris BphP1 (RpBphP1), mammalian two-hybrid construct (Rhodopseudomonas palustris)
[2] = target: T1, GAL4-BD-DrBphP, mammalian two-hybrid bait (Deinococcus radiodurans (strain not …, UniProt Q9RZA4))
T1 sequence (Q9RZA4 whole entry, looked up, the tested form may be a part): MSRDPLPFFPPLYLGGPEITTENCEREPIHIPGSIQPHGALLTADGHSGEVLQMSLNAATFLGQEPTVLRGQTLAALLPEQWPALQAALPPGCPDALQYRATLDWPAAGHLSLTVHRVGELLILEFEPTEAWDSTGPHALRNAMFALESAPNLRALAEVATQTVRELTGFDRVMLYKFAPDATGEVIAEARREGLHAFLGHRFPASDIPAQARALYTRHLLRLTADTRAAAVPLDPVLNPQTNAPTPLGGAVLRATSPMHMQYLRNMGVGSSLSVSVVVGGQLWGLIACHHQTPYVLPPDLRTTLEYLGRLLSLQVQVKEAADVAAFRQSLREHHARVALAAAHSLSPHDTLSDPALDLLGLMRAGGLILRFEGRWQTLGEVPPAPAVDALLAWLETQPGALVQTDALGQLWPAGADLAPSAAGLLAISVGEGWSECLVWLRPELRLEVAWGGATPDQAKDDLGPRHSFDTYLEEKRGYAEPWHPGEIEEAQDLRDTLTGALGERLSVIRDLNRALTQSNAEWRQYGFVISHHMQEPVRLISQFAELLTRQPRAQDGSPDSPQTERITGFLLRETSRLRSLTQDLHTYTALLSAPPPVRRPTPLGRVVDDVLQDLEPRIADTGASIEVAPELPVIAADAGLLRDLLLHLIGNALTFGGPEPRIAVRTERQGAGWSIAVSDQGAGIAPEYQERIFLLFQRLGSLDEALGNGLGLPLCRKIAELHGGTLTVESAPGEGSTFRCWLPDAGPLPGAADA

[3] = target: T1, GAL4-BD-DrBphP, mammalian two-hybrid …; remark: listed apart in the source

Molecule | fold increase of luciferase expression, 775-nm light over dark [1] [fold] | fold increase of GFP level, 654-nm light over dark [2] [fold] | fold increase of luciferase expression, 654-nm light over dark [3] [fold]
PpsR2, mammalian two-hybrid construct (natural protein) | 2.95 |  | 
B1 |  | ~44 | ~19.5
B2 |  | ~39 | ~19.1
